Laboratory results: paper PMC12990809

Assays:
Experiment in all cases: pulldown
[1] = biological target: T1, LmjF.29.0680 D253N (Leishmania major) (UniProt E9ADS0); details: 20 nM protein, 1.5 uM RNA pool; 20 mM HEPES pH 7.8, 70 mM KCl, 10 mM NaCl, 10% glycerol, 2 mM DTT, 0.1 ug/uL BSA; 30 min, 4 C
T1 sequence: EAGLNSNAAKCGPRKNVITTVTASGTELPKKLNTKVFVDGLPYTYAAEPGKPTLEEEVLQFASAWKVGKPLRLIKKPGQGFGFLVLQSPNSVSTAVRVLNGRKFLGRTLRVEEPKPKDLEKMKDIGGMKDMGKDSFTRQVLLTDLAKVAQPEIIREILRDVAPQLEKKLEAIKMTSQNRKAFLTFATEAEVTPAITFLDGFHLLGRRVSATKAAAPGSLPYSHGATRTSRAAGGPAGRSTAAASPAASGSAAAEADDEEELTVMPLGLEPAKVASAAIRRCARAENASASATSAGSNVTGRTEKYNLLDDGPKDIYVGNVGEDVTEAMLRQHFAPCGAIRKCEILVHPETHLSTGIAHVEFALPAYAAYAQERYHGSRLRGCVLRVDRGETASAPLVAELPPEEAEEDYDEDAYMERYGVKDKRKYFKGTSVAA

ELAVL1 (Homo sapiens) = ELAVL1 (Homo sapiens) (UniProt Q15717); details: 20 nM protein, 1.5 uM RNA pool; 20 mM HEPES pH 7.8, 70 mM KCl, 10 mM NaCl, 10% glycerol, 2 mM DTT, 0.1 ug/uL BSA; 30 min, 4 C (protocol of this paper; not …); cited from earlier work
Chain of ELAVL1 (Homo sapiens) (Q15717 1-325): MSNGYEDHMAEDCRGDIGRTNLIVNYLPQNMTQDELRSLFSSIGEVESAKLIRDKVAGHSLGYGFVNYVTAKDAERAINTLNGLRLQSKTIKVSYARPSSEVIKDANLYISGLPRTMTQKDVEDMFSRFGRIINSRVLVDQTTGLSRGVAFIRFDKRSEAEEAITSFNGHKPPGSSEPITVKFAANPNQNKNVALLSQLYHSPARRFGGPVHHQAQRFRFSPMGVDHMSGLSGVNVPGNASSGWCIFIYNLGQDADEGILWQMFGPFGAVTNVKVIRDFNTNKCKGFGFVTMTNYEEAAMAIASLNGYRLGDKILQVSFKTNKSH

[2] = biological target: T2, Tb11.03.0550 L37P (Trypanosoma brucei) (UniProt Q387J8); details: 20 nM protein, 1.5 uM RNA pool; 20 mM HEPES pH 7.8, 70 mM KCl, 10 mM NaCl, 10% glycerol, 2 mM DTT, 0.1 ug/uL BSA; 30 min, 4 C
T2 sequence: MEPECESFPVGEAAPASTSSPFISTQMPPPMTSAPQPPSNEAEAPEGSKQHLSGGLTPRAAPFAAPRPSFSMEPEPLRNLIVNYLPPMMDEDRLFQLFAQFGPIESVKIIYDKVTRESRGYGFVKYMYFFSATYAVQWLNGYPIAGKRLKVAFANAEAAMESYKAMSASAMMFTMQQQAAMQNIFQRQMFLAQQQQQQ

[3] = biological target: T3, LmjF.33.1450 (Leishmania major) (UniProt Q4Q442); details: 20 nM protein, 1.5 uM RNA pool; 20 mM HEPES pH 7.8, 70 mM KCl, 10 mM NaCl, 10% glycerol, 2 mM DTT, 0.1 ug/uL BSA; 30 min, 4 C
T3 sequence: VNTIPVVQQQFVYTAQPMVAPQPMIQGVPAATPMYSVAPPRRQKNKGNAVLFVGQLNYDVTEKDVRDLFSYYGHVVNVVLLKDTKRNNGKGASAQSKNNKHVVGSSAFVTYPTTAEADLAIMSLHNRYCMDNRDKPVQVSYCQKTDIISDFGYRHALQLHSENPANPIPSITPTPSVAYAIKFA

[4] = biological target: T4, Tb927.3.3960 (Trypanosoma brucei) (UniProt Q57WD2); details: 20 nM protein, 1.5 uM RNA pool; 20 mM HEPES pH 7.8, 70 mM KCl, 10 mM NaCl, 10% glycerol, 2 mM DTT, 0.1 ug/uL BSA; 30 min, 4 C
T4 sequence: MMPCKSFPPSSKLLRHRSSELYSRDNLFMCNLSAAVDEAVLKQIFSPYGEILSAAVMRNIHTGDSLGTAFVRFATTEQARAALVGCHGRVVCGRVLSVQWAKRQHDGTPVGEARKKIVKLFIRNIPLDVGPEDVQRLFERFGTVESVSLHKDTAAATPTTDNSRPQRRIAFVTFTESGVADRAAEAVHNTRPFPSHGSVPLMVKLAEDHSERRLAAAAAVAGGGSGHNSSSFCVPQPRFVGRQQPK

[5] = biological target: T5, LmjF.29.1360 (Leishmania major) (UniProt E9ADZ5); details: 20 nM protein, 1.5 uM RNA pool; 20 mM HEPES pH 7.8, 70 mM KCl, 10 mM NaCl, 10% glycerol, 2 mM DTT, 0.1 ug/uL BSA; 30 min, 4 C
T5 sequence: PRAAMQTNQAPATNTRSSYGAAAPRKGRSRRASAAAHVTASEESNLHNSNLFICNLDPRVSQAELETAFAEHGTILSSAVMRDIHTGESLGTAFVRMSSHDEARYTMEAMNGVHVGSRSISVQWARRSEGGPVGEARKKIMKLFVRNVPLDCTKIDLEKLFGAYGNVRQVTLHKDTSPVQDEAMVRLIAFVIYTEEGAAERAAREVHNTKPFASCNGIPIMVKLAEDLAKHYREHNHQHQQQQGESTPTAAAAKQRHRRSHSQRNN

[6] = biological target: T6, LmjF.32.2810 (Leishmania major) (UniProt Q4Q4Z4); details: 20 nM protein, 1.5 uM RNA pool; 20 mM HEPES pH 7.8, 70 mM KCl, 10 mM NaCl, 10% glycerol, 2 mM DTT, 0.1 ug/uL BSA; 30 min, 4 C
T6 sequence: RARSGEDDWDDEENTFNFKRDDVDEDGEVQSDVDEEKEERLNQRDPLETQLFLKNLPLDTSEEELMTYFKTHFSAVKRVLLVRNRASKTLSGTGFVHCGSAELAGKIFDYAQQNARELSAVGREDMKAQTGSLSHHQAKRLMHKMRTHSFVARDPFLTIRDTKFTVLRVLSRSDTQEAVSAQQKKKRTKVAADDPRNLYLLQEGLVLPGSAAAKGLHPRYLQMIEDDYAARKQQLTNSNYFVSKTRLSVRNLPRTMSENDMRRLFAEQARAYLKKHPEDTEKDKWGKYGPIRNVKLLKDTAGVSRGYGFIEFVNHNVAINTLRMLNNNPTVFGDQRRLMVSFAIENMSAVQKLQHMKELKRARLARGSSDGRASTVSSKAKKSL

mex3c (Danio rerio) = biological target: T7, mex3c (Danio rerio) (UniProt A0A8M1REM5); details: 20 nM protein, 1.5 uM RNA pool; 20 mM HEPES pH 7.8, 70 mM KCl, 10 mM NaCl, 10% glycerol, 2 mM DTT, 0.1 ug/uL BSA; 30 min, 4 C
T7 sequence: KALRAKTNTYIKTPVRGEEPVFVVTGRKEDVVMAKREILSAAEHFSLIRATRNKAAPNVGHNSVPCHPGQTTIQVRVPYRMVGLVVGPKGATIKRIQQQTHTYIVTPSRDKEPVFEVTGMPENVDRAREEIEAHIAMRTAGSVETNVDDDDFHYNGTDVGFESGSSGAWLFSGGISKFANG

[7] = biological target: T8, LmjF.30.2180 (Leishmania major) (UniProt Q4Q775); details: 20 nM protein, 1.5 uM RNA pool; 20 mM HEPES pH 7.8, 70 mM KCl, 10 mM NaCl, 10% glycerol, 2 mM DTT, 0.1 ug/uL BSA; 30 min, 4 C
T8 sequence: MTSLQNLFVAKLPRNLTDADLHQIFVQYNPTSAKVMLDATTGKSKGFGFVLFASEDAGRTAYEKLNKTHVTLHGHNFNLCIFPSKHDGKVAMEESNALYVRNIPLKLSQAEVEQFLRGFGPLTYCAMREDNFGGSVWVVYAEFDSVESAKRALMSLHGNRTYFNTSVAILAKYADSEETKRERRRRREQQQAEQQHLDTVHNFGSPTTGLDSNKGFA

[8] = biological target: T9, BATDEDRAFT_13807 (Batrachochytrium dendrobatidis) (UniProt F4NYD0); details: 20 nM protein, 1.5 uM RNA pool; 20 mM HEPES pH 7.8, 70 mM KCl, 10 mM NaCl, 10% glycerol, 2 mM DTT, 0.1 ug/uL BSA; 30 min, 4 C
T9 sequence: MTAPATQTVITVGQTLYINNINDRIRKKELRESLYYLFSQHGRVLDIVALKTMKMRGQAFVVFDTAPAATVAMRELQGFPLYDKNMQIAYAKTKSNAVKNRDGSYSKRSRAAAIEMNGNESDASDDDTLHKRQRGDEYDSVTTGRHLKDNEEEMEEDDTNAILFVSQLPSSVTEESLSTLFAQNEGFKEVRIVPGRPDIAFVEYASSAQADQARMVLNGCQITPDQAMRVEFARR

GAAGGA [RNAcompete motif RNCMPT00720]
binding signal (z-score (mean of top ten 7-mers)) [1]: 7.49

UUAUUUU [RNAcompete motif RNCMPT00032]
binding signal (z-score (mean of top ten 7-mers)) (ELAVL1 (Homo sapiens)): 15

UUAUUUU [RNAcompete motif RNCMPT00749]
binding signal (z-score (mean of top ten 7-mers)) [2]: 13.9

UUGCAGU [RNAcompete motif RNCMPT00717]
binding signal (z-score (mean of top ten 7-mers)) [3]: 21.8

CAUUGU [RNAcompete motif RNCMPT00735]
binding signal (z-score (mean of top ten 7-mers)) [4]: 23

UAUAGU [RNAcompete motif RNCMPT00714]
binding signal (z-score (mean of top ten 7-mers)) [5]: 20.4

GUAGNA [RNAcompete motif RNCMPT00716]
binding signal (z-score (mean of top ten 7-mers)) [6]: 6.94

AGAGUA [RNAcompete motif RNCMPT00727]
binding signal (z-score (mean of top ten 7-mers)) (mex3c (Danio rerio)): 10.1

UCAAAA [RNAcompete motif RNCMPT00715]
binding signal (z-score (mean of top ten 7-mers)) [7]: 22.8

AUNGCAC [RNAcompete motif RNCMPT00739]
binding signal (z-score (mean of top ten 7-mers)) [8]: 7.82
